# Laboratory results reported in patent publication US20210071139A1.
# Columns and labels:
# Experiment in all cases: TOX IP-MS, EL4 nuclear extract, MiST
# Acsl4 = Acsl4 (UniProt Q9QUJ7)
# Sdcbp = Sdcbp (UniProt O08992)
# Prrc2a = Prrc2a (UniProt Q7TSC1)
# Rbm34 = Rbm34 (UniProt Q8C5L7)
# Srrt = Srrt (UniProt Q99MR6)
# Rrp8 = Rrp8 (UniProt Q9DB85)
# Mphosph10 = Mphosph10 (UniProt Q810V0)
# Rpl36; Gm8973 = target: Rpl36; Gm8973
# Cad = Cad (UniProt B2RQC6)
# Dync1li1 = Dync1li1 (UniProt Q8R1Q8)
# Jade2 = Jade2 (UniProt Q6ZQF7)
# Hcfc1 = Hcfc1 (UniProt Q61191)
# Fxr1 = Fxr1 (UniProt Q61584)
# Utp14a = Utp14a (UniProt Q640M1)
# Dnajc9 = Dnajc9 (UniProt Q91WN1)
# Kntc1 = Kntc1 (UniProt Q8C3Y4)
# Rpl37a = Rpl37a (UniProt P61514)
substance,measurement,setting,value
Tox (from UniProt Q66JW3 1-526),Abundance,Acsl4,2.9e-06
same,MiST Score,Acsl4,0.968
same,Reproducibility,Acsl4,0.914
same,Specificity,Acsl4,1
same,Abundance,Sdcbp,5.96e-05
same,MiST Score,Sdcbp,0.957
same,Reproducibility,Sdcbp,0.88
same,Specificity,Sdcbp,1
same,Abundance,Prrc2a,7.11e-07
same,MiST Score,Prrc2a,0.916
same,Reproducibility,Prrc2a,0.862
same,Specificity,Prrc2a,0.948
same,Abundance,Rbm34,4.09e-05
same,MiST Score,Rbm34,0.962
same,Reproducibility,Rbm34,0.895
same,Specificity,Rbm34,1
same,Abundance,Srrt,2.3e-06
same,MiST Score,Srrt,0.913
same,Reproducibility,Srrt,0.953
same,Specificity,Srrt,0.903
same,Abundance,Rrp8,4.13e-06
same,MiST Score,Rrp8,0.969
same,Reproducibility,Rrp8,0.919
same,Specificity,Rrp8,1
same,Abundance,Mphosph10,1.33e-05
same,MiST Score,Mphosph10,0.97
same,Reproducibility,Mphosph10,0.924
same,Specificity,Mphosph10,1
same,Abundance,Rpl36; Gm8973,0.00269
same,MiST Score,Rpl36; Gm8973,0.928
same,Reproducibility,Rpl36; Gm8973,0.855
same,Specificity,Rpl36; Gm8973,0.969
same,Abundance,Cad,2.65e-07
same,MiST Score,Cad,0.906
same,Reproducibility,Cad,0.714
same,Specificity,Cad,1
same,Abundance,Dync1li1,5.91e-06
same,MiST Score,Dync1li1,0.976
same,Reproducibility,Dync1li1,0.941
same,Specificity,Dync1li1,1
same,Abundance,Jade2,4.26e-06
same,MiST Score,Jade2,0.937
same,Reproducibility,Jade2,0.815
same,Specificity,Jade2,1
same,Abundance,Hcfc1,4.9e-07
same,MiST Score,Hcfc1,0.964
same,Reproducibility,Hcfc1,0.901
same,Specificity,Hcfc1,1
same,Abundance,Fxr1,1.59e-05
same,MiST Score,Fxr1,0.915
same,Reproducibility,Fxr1,0.924
same,Specificity,Fxr1,0.919
same,Abundance,Utp14a,3.2e-06
same,MiST Score,Utp14a,0.93
same,Reproducibility,Utp14a,0.792
same,Specificity,Utp14a,1
same,Abundance,Dnajc9,5.16e-05
same,MiST Score,Dnajc9,0.961
same,Reproducibility,Dnajc9,0.892
same,Specificity,Dnajc9,1
same,Abundance,Kntc1,2.82e-06
same,MiST Score,Kntc1,0.897
same,Reproducibility,Kntc1,0.686
same,Specificity,Kntc1,1
same,Abundance,Rpl37a,0.00127
same,MiST Score,Rpl37a,0.911
same,Reproducibility,Rpl37a,0.731
same,Specificity,Rpl37a,1
